Legend:
Conditions in all cases: 20 nM; 72 h
MCF10A [1] = assay: percent viability (nuclei count relative to siNT); higher = more viable cells
Experimental: (§1)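 After 72 h, cells were fixed and stained with Hoechst and anti-fibrillarin, and nucleoli per nucleus were counted with CellProfiler. Values are plate-adjusted percent effect for the one-nucleolus and 5+ nucleoli phenotypes, normalised to siNT (0%) and to the positive controls siNOL11 or siKIF11 (100%), as the mean of biological triplicates. Percent viability is the nuclei count relative to siNT.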

MCF10A [2] = assay: one-nucleolus phenotype percent effect (relative to siNT 0% and siNOL11 100%); higher = more cells with one nucleolus (ribosome biogenesis inhibition)
Experimental: as §1

MCF10A [3] = assay: 5+ nucleoli phenotype percent effect (relative to siNT 0% and siKIF11 100%); higher = more cells with five or more nucleoli
Experimental: as §1

Sequence	percent viability (MCF10A [1]) [%]	one-nucleolus phenotype percent effect (MCF10A [2]) [%]	5+ nucleoli phenotype percent effect (MCF10A [3]) [%]
AAGCGACCAUGAUGUAACUUCA [hsa-miR-4670-5p]	49.2	14	-4.37
UAGGUAGUUUCAUGUUGUUGGG [hsa-miR-196a-5p]	33.5	-16.9	23.8
GCUGGGCAGGGCUUCUGAGCUCCUU [hsa-miR-612]	77.6	14.9	-7.01
AGGGAGAAAGCUAGAAGCUGAAG [hsa-miR-6878-5p]	72.6	-18.3	44.5
CGGGCCGGAGGUCAAGGGCGU [hsa-miR-6781-5p]	46.3	-2.25	54.4
UAUGGGGCUUCUGUAGAGAUUUC [hsa-miR-3675-5p]	37.2	22.6	-9.76
CUGACUGAAUAGGUAGGGUCAUU [hsa-miR-3136-5p]	32.7	24.8	-32.9
GAAUACGUCUGGUUGAUCC [hsa-miR-6082]	186	-25.8	67.8
CAGCCGCCGCCUGUCUCCACAG [hsa-miR-6746-3p]	36.2	-1.13	7.39
UAUCUGCUGGGCUUUCUGGUGUU [hsa-miR-4686]	34.5	43.6	-43.3
AAAAACCACAAUUACUUUUGCACCA [hsa-miR-548t-3p]	157	-19.6	39.3
UGGGCCAUGCAUUUCUAGAACU [hsa-miR-6508-3p]	40.2	41.6	-35
UGACUUCUACCUCUUCCAAAG [hsa-miR-6505-3p]	33.6	46.6	-48
UGCCUACUGAGCUGAUAUCAGU [hsa-miR-24-1-5p]	49.2	3.46	-18
UGGUAGACUAUGGAACGUAGG [hsa-miR-379-5p]	31	12.4	-21.8
AGCCGCGGGGAUCGCCGAGGG [hsa-miR-3648]	88.3	-17.8	19.7
GAUGAUGCUGCUGAUGCUG [hsa-miR-1322]	41.1	24.5	-20.7
AAAGUAGCUGUACCAUUUGC [hsa-miR-562]	83.9	-28.9	57
ACCAUCGACCGUUGAUUGUACC [hsa-miR-181a-3p]	87.3	-7.58	21.1
UUUCAAGCCAGGGGGCGUUUUUC [hsa-miR-498]	61	-7.63	23.7
AUGAAGCCUUCUCUGCCUUACG [hsa-miR-7843-3p]	37.8	15.8	-32.5
GGCGGGUGCGGGGGUGG [hsa-miR-3656]	148	-15.8	37.2
UCCUCCUCUACCUCAUCCCAGU [hsa-miR-5193]	35.1	9.86	-13.6
AUAGCAGCAUAAGCCUGUCUC [hsa-miR-4524b-5p]	21	-0.0215	-6.19

Sequence	percent viability (MCF10A [1]) [%]	one-nucleolus phenotype percent effect (MCF10A [2]) [%]	5+ nucleoli phenotype percent effect (MCF10A [3]) [%]
CGCCCCUCCUGCCCCCACAG [hsa-miR-4749-3p]	115	-18.4	64.3
AGGGUGUUUCUCUCAUCUCU [hsa-miR-609]	74	-18.6	53.7
CAGUUCAGAAGUGUUCCUGAGU [hsa-miR-5000-5p]	32.3	-9.77	-19.1
UGUGGGUUCUGGGUUGGGGUGA [hsa-miR-6793-5p]	14.3	30.2	-24.1
AAAGUCUCGCUCUCUGCCCCUCA [hsa-miR-3184-3p]	172	-19.6	41.1
CAGGGCCAGGCACAGAGUAAG [hsa-miR-6895-5p]	41.8	13.8	0.712
GGGUGAGGGCAGGUGGUU [hsa-miR-4710]	19.2	17.1	22.2
CUGGGAGGGGCUGGGUUUGGC [hsa-miR-6779-5p]	36.8	10.8	2.1
CCCAGGGCUUGGAGUGGGGCAAGGUU [hsa-miR-4685-5p]	69.2	9.96	15
CCUCAGAUCAGAGCCUUGC [hsa-miR-4330]	91.9	-32.8	59.5
AGAAGUGGCUAAUAAUAUUGA [hsa-miR-4795-5p]	34.5	-14.7	-2.9
CCAGACUGUGGCUGACCAGAGG [hsa-miR-4494]	96.4	-29.5	52.3
AGACAGUAGUUCUUGCCUGGUU [hsa-miR-4645-3p]	52.7	18.2	-25
GGGAGCCAGGAAGUAUUGAUGU [hsa-miR-505-5p]	68.7	10.3	1.85
UUUCCUCAUAUUCAUUCAGGA [hsa-miR-670-3p]	46.6	4.99	-7.45
CGAGGGGUAGAAGAGCACAGGGG [hsa-miR-6738-5p]	75.7	-8.33	26.9
GGAGGCGCAGGCUCGGAAAGGCG [hsa-miR-3197]	41.9	-2.74	13.6
UCGAGGACUGGUGGAAGGGCCUU [hsa-miR-3131]	47.9	8.15	-6.74
GGGAGUGCAGGGCAGGGUUUC [hsa-miR-504-3p]	36	14.7	-22.6
UUAGGGAGUAGAAGGGUGGGGAG [hsa-miR-3162-5p]	52.8	8.12	-5.7
AUUAGGUAGUGGCAGUGGAAC [hsa-miR-6509-5p]	55.7	-17.9	6.73
AACACACCUAUUCAAGGAUUCA [hsa-miR-362-3p]	47.7	-7.86	30.7
AGAGGUAUAGGGCAUGGGAA [hsa-miR-202-3p]	42.3	10.1	3.86
GGGUUUGUAGCUUUGCUGGCAUG [hsa-miR-5087]	26.6	4.68	6.11
